Series [1] is described as follows: Pharmacokinetic analysis in WT BALBc mice (serum, ELISA). Type of series: in vivo, mouse. The source says:
The pharmacokinetic (PK) properties of lead-labelled DARPin (MAM160, MAM279, MAM282, MAM283) conjugates were investigated in mice, including to determine the terminal half-life (or serum half-life) of these conjugates.
In brief, DARPins MAM279, MAM283, MAM160 and MAM282 were conjugated to the chelator DOTAM, via a C-terminal Cysteine containing tag and a connector, as described in Example 3. The conjugates were then labelled with natural lead (Pb). The protein components of the conjugates corresponded to SEQ ID NOs: 15 to 18, respectively. These lead-labelled DARPin conjugates were injected i.v. at 1 mg/kg into WT BALBc mice. Serum was collected 2 min, 10 min, 30 min, 1 h, 4 h, 24 h, 48 h, and 72 h post-injection. DARPins were detected and measured by ELISA. The data were expressed as the DARPin concentration in serum (nmol/L).
In brief, lead-labelled MAM279 conjugate, as described in Example 13, was injected i. at 0.1 mg/kg or at 1 mg/kg into the tail vein of WT BALBc mice. Serum was collected 2 min, 10 min, 30 min, 1 h, 4 h, 24 h, 48 h, and 72 h post-injection for MAM279 conjugate injected at 1 mg/kg, and 2 min, 30 min, 4 h, 24 h, 30 h, 48 h, 72 h, 96 h, and 168 h post-injection for MAM279 conjugate injected at 0.1 mg/kg. DARPins were detected and measured by ELISA. The data were expressed as the DARPin concentration in serum (nmol/L).
In brief, natural lead-labelled MAM279 conjugate, as described in Example 13, was injected i.v. at different doses (0.001 mg/kg, 0.01 mg/kg, 0.1 mg/kg, or 1 mg/kg) into the tail vein of WT BALBc mice. Similarly, unconjugated Rova was injected iv. at 1 mg/kg into the tail vein of WT BALBc mice. Serum was collected 2 min, 10 min, 30 min, 1 h, 4 h, 24 h, 48 h, and 72 h post-injection for MAM279 conjugate injected at 1 mg/kg, and 2 min, 30 min, 4 h, 24 h, 30 h, 48 h, 72 h, 96 h, and 168 h post-injection for MAM279 conjugate injected at 0.1 mg/kg, 0.01 mg/kg and 0.001 mg/kg. Serum was collected 2 min, 30 min, 4 h, 24 h, 30 h, 48 h, 72 h, 96 h, and 168 h post-injection for Rova antibody injected at 1 mg/kg. DARPins and Rova were detected and measured by ELISA. Rova PK characteristics were calculated with time points between 4 h and 168 h and MAM279 conjugate PK characteristics were calculated with time points between 4 h and 72 h. The data were expressed as the DARPin or Rova concentration in serum (nmol/L). Results are shown in FIGS. 19A and 19B and Table 22.
A general note: In an ELISA, binding on a coated surface is turned into a signal by an enzyme label.

The subject of the next series is hDLL3-MC38 tumor model. In words: Biodistribution of radio-labelled DARPin conjugates in hDLL3-MC38 tumor model. Type of series: in vivo, mouse. The note with it: Pb-212 DOTAM conjugate 0.01 mg/kg (10 μCi) i.v., athymic nude mice, s.c. hDLL3-MC38; 24 h; Example 9. An excerpt: hDLL3-MC38 tumor model. ATH mice were purchased from Envigo. General handling and maintenance of mice was done as described above for the NCI-H82 tumor model. hDLL3-MC38 cells were purchased from Biocytogen (Catalog No. 311448). […] Cells were quantified using Countess cell counter.
Biodistribution study. […] Based on immunohistochemistry analyses, the hDLL3-MC38 tumors have a higher level of human DLL3 expression than the NCI-H82 tumors described in Example 3 (data not shown). Biodistribution was monitored at 1 h, 4 h and 24h post-injection. Mice were euthanized by CO2 inhalation and cervical dislocation.
Mice were euthanized by CO2 inhalation and cervical dislocation.

The target of series [2] is T1, human DLL3 expressed on HEK293T-huDLL3 cells (Homo sapiens, UniProt Q9NYJ7).
T1 construct: expressed in transfected cells; host or cells: HEK293T-hDLL3
T1 sequence (Q9NYJ7 27-618): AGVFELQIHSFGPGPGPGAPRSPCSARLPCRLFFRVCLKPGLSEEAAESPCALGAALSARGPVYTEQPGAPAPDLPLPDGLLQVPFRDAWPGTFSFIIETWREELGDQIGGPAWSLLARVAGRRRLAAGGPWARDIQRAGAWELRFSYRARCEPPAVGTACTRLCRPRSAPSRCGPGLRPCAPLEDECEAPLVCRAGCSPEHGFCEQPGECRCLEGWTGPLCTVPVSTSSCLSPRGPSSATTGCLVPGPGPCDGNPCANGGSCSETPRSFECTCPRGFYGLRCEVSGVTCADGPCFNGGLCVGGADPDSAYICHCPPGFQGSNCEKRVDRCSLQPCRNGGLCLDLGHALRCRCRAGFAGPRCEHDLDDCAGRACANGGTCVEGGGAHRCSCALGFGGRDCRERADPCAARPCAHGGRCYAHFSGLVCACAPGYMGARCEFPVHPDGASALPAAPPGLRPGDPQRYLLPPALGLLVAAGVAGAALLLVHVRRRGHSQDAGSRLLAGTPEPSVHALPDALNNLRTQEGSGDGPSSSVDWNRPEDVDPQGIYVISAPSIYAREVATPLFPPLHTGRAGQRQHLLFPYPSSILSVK
As to the kind of experiment: Cell binding titration on HEK293T-hDLL3 cells. It counts as cell-based. The note with it: presence of human serum albumin (10 μM in FIG. 9 legend, 10 pM in the source), read-out: Cell binding EC50, with HSA.

[3] abbreviates: 1 mg/kg i.v., MAM279 natural lead-labelled conjugate (time points 4-72 h), Rova unconjugated (4-168 h), Table 22.
Setting [4] is: 1 mg/kg i.v., MAM279 natural lead-labelled conjugate, Rova unconjugated, Table 22.

B1: MAM279 conjugate: SEQ ID NO: 15 conjugated to DOTAM-maleimide, labelled with Pb-212 (natural lead in PK studies) (conjugate)
chain: GSDLGKKLLEAARAGQDDEVRELLKAGADVNAKDYFSHTPLHLAARNGHLKIVEVLLKAGADVNAKDFAGKTPLHLAADAGHLEIVEVLLKAGADVNAQDIFGKTPADIAADAGHEDIAEVLQKAAGSPTPTPTTPTPTPTTPTPTPTGSDLGKKLLAAAAQGQDDEVRELLKAGANVNAKDLFGYTPLHLAAWRGHLEIVEVLLKAGADVNAKDAAGETPLHLAAWFGHLEIVEVLLKAGADVNAQDLQGKTPADLAAKEGHEDIAEVLQKAAGSGSC
modifications: DOTAM-maleimide, Pb-212 label; Ankyrin repeat protein with tag (GS-MAM279-tag)
As for B1, the serum half-life in series [1] (0.001 mg/kg i.v.) is 39.9 h; in series [1] (0.01 mg/kg i.v.) it was 33.1 h; in series [1] (0.1 mg/kg i.v.), 32.8 h; in series [1] (1 mg/kg i.v.), 30.5 h. The “T:K ratio” value in the series with hDLL3-MC38 tumor model is reported as “above 1”.

B2: Rova: Rova antibody, DLL3-binding benchmark antibody used as positive control and comparison (antibody, chains of the INN, looked up, V domains shown)
VH: QVQLVQSGAEVKKPGASVKVSCKASGYTFTNYGMNWVRQAPGQGLEWMGWINTYTGEPTYADDFKGRVTMTTDTSTSTAYMELRSLRSDDTAVYYCARIGDSSPSDYWGQGTLVTVSS
VL: EIVMTQSPATLSVSPGERATLSCKASQSVSNDVVWYQQKPGQAPRLLIYYASNRYTGIPARFSGSGSGTEFTLTISSLQSEDFAVYYCQQDYTSPWTFGQGTKLEIK
For B2, the serum half-life result in series [1] (1 mg/kg i.v.) was “about 145 hours”. In series [1] (setting [3]), this molecule had an AUCINF_pre of 11.9183 µM·h, an AUClast of 6636.1 h*hr*nmol/L and an HL_Lambda_z of 145.8 h. In series [1] (setting [4]), the AUC_%Back_Ext_pre is given as 0%, the AUC_%Extrap_Pred was 44%, the Cl_pred amounted to 14 mL/day/kg and the Cmax was 130 nM. Further, in series [1] (setting [4]), the Tmax was found to be 1.98 min and the Vss_pred amounted to 0.12 L/kg. In addition, the EC50 in series [2] stood at 300 pM.

As usually defined, the Cmax is the maximum level reached in the sampled fluid or tissue. As a reminder, the Tmax is the time from dosing to the highest level. The term EC50 denotes the concentration at which the effect is half-maximal.

These data come from patent publication US20250332297A1, “DLL3-SPECIFIC BINDING CONSTRUCTS AND THEIR USE IN RADIOTHERAPY” (MOLECULAR PARTNERS AG, priority 2024, published 2025).
